Experimental findings from article PMC6892150, “Dimerization of MORC2 through its C-terminal coiled-coil domain enhances chromatin dynamics and promotes DNA repair” (Cell Communication and Signaling : CCS, 2019) are described below.

This series concerns the molecule itself. The experiment in a line: cross-linking; Flag-MORC2 purified from HEK293T, chemical cross-linking, immunoblotting. (In general: In western blotting, separated proteins are transferred to a membrane and probed.)

B1: microrchidia family CW-type zinc finger protein 2 (MORC2), full length, Flag- or HA-tagged (natural protein, human, UniProt Q9Y6X9 1-1032, looked up)
chain: MAFTNYSSLNRAQLTFEYLHTNSTTHEFLFGALAELVDNARDADATRIDIYAERREDLRGGFMLCFLDDGAGMDPSDAASVIQFGKSAKRTPESTQIGQYGNGLKSGSMRIGKDFILFTKKEDTMTCLFLSRTFHEEEGIDEVIVPLPTWNARTREPVTDNVEKFAIETELIYKYSPFRTEEEVMTQFMKIPGDSGTLVIIFNLKLMDNGEPELDIISNPRDIQMAETSPEGTKPERRSFRAYAAVLYIDPRMRIFIHGHKVQTKRLSCCLYKPRMYKYTSSRFKTRAEQEVKKAEHVARIAEEKAREAESKARTLEVRLGGDLTRDSRVMLRQVQNRAITLRREADVKKRIKEAKQRALKEPKELNFVFGVNIEHRDLDGMFIYNCSRLIKMYEKVGPQLEGGMACGGVVGVVDVPYLVLEPTHNKQDFADAKEYRHLLRAMGEHLAQYWKDIAIAQRGIIKFWDEFGYLSANWNQPPSSELRYKRRRAMEIPTTIQCDLCLKWRTLPFQLSSVEKDYPDTWVCSMNPDPEQDRCEASEQKQKVPLGTFRKDMKTQEEKQKQLTEKIRQQQEKLEALQKTTPIRSQADLKKLPLEVTTRPSTEEPVRRPQRPRSPPLPAVIRNAPSRPPSLPTPRPASQPRKAPVISSTPKLPALAAREEASTSRLLQPPEAPRKPANTLVKTASRPAPLVQQLSPSLLPNSKSPREVPSPKVIKTPVVKKTESPIKLSPATPSRKRSVAVSDEEEVEEEAERRKERCKRGRFVVKEEKKDSNELSDSAGEEDSADLKRAQKDKGLHVEVRVNREWYTGRVTAVEVGKHVVRWKVKFDYVPTDTTPRDRWVEKGSEDVRLMKPPSPEHQSLDTQQEGGEEEVGPVAQQAIAVAEPSTSECLRIEPDTTALSTNHETIDLLVQILRNCLRYFLPPSFPISKKQLSAMNSDELISFPLKEYFKQYEVGLQNLCNSYQSRADSRAKASEESLRTSERKLRETEEKLQKLRTNIVALLQKVQEDIDINTDDELDAYIEDLITKGD
notes: MORC2, human, full length (1032 residues by the printed numbering 950-1032 for the C-terminus); Flag-MORC2 and HA-MORC2 are two differently tagged copies of the same full-length protein; each chain carries one tag only; Written as one molecule because they are co-precipitated with each other to show self-association; Flag-MORC2 was the copy purified for cross-linking; HA-MORC2 was the copy …
For B1, the “stoichiometry N” value amounted to 2.

The stoichiometry N is the number of molecules, sites or subunits per partner or assembly.
